This note sets out measurements from the RNAGym collection of RNA variant scans (doi:10.7554/elife.80360).

B1: Hammerhead Ribozyme (parent)
chain: ACCGGAUGUGCUUUCCGGUCUGAUGAGUCCGUGAGGACGAAACAG

Variants of B1 are the subject of the data set. Briefly: self-cleavage, relative activity (ratio to wild type); higher = more cleavage; co-transcriptional.
In the case of ACCGGAUGUGCUUUCCGGUCUAAUAAGUCCGUGAGGACGAAACAG [G22A G25A], the self-cleavage was 0.377. Next, ACCGGAUGUGCUUUCCGGUCUAAUUAGUCCGUGAGGACGAAACAG [G22A G25U]: 0.376; ACCGGAUGUGCUUUCCGGUCUAAUCAGUCCGUGAGGACGAAACAG [G22A G25C]: 0.329; ACCGGAUGUGCUUUCCGGUCUAAUGAGUCCGUGAGGACGAAACUG [G22A A44U]: 0.314. Next, ACCGGAUGUGCUUUCCGGUCUAAUGAGUCCGUGAGGACGAAACCG [G22A A44C]: 0.372. In the case of ACCGGAUGUGCUUUCCGGUCUAAUGAGUCCGUGAGGACGAAACGG [G22A A44G], the self-cleavage amounted to 0.672. Next, ACCGGAUGUGCUUUCCGGUCUAAUGAGUCCGAGAGGACGAAACAG [G22A U32A]: 0.306; ACCGGAUGUGCUUUCCGGUCUAAUGAGUCCGUGAGUACGAAACAG [G22A G36U]: 0.344. Next, ACCGGAUGUGCUUUCCGGUCUAAUGAGUCCGUGAGCACGAAACAG [G22A G36C]: 0.309.

Take ACCGGAUGUGCUUUCCGGUCUAAUGAGUCCGUGAGAACGAAACAG [G22A G36A]: the self-cleavage was found to be 0.361. As for ACCGGAUGUGCUUUCCGGUCUAAUGAGUCCGUGAGGUCGAAACAG [G22A A37U], the figure is 0.288; as for ACCGGAUGUGCUUUCCGGUCUAAUGAGUCCGUGAGGGCGAAACAG [G22A A37G], 0.285; as for ACCGGAUGUGCUUUCCGGUCUAAUGAGUCCGUGAGGACAAAACAG [G22A G39A], 0.367.

Take ACCGGAUGUGCUUUCCGGUCUAAUGAGUCCGUGAGGACCAAACAG [G22A G39C]: the self-cleavage came to 0.385.

Turning to ACCGGAUGUGCUUUCCGGUCUAAUGAGUCCGUGAGGACUAAACAG [G22A G39U], the self-cleavage is 0.325. Next, ACCGGAUGUGCUUUCCGGUCUAAUGAGUCCGUGAGGACGAGACAG [G22A A41G]: 0.365; ACCGGAUGUGCUUUCCGGUCUAAUGAGUCCGUGAGGACGACACAG [G22A A41C]: 0.383; ACCGGAUGUGCUUUCCGGUCUAAUGAGUCCGUGAGGACGAUACAG [G22A A41U]: 0.318. As for ACCGGAUGUGCUUUCCGGUCUAAUGAGUCCGUGAUGACGAAACAG [G22A G35U], the figure is 0.328. As for ACCGGAUGUGCUUUCCGGUCUAAUGAGUCCGUGAAGACGAAACAG [G22A G35A], the figure is 0.336; as for ACCGGAUGUGCUUUCCGGUCUAAUGAGUCCGUGACGACGAAACAG [G22A G35C], 0.294; as for ACCGGAUGUGCUUUCCGGUCUAAUGAGUACGUGAGGACGAAACAG [G22A C29A], 0.342.

ACCGGAUGUGCUUUCCGGUCUAAUGAGUUCGUGAGGACGAAACAG [G22A C29U]: the self-cleavage worked out at 0.279. As for ACCGGAUGUGCUUUCCGGUCUAAUGAGUGCGUGAGGACGAAACAG [G22A C29G], the figure is 0.332.

As for ACCGGAUGUGCUUUCCGGUCUAAUGAGUCCGUGAGGAGGAAACAG [G22A C38G], the self-cleavage amounted to 0.329. As for ACCGGAUGUGCUUUCCGGUCUAAUGAGUCCGUGAGGAUGAAACAG [G22A C38U], the figure is 0.328; as for ACCGGAUGUGCUUUCCGGUCUAAUGAGUCCGUGAGGAAGAAACAG [G22A C38A], 0.327. As for ACCGGAUGUGCUUUCCGGUCUAAUGAGACCGUGAGGACGAAACAG [G22A U28A], the figure is 0.326; as for ACCGGAUGUGCUUUCCGGUCUAAUGAGCCCGUGAGGACGAAACAG [G22A U28C], 0.294. On to ACCGGAUGUGCUUUCCGGUCUAAUGAGGCCGUGAGGACGAAACAG [G22A U28G], for which the self-cleavage stood at 0.37. Next, ACCGGAUGUGCUUUCCGGUCUAAUGAUUCCGUGAGGACGAAACAG [G22A G27U]: 0.28; ACCGGAUGUGCUUUCCGGUCUAAUGACUCCGUGAGGACGAAACAG [G22A G27C]: 0.39. Next, ACCGGAUGUGCUUUCCGGUCUAAUGAAUCCGUGAGGACGAAACAG [G22A G27A]: 0.342; ACCGGAUGUGCUUUCCGGUCUAAUGAGUCCGUCAGGACGAAACAG [G22A G33C]: 0.317; ACCGGAUGUGCUUUCCGGUCUAAUGAGUCCGUAAGGACGAAACAG [G22A G33A]: 0.353.

Consider ACCGGAUGUGCUUUCCGGUCUAAUGAGUCCGUUAGGACGAAACAG [G22A G33U], for which the self-cleavage amounted to 0.3. Next, ACCGGAUGUGCUUUCCGGUCUAACGAGUCCGUGAGGACGAAACAG [G22A U24C]: 0.311. Next, ACCGGAUGUGCUUUCCGGUCUAAAGAGUCCGUGAGGACGAAACAG [G22A U24A]: 0.378; ACCGGAUGUGCUUUCCGGUCUAAGGAGUCCGUGAGGACGAAACAG [G22A U24G]: 0.363. For ACCGGAUGUGCUUUCCGGUCUAAUGAGUCCUUGAGGACGAAACAG [G22A G31U], the self-cleavage was determined as 0.427.

In the case of ACCGGAUGUGCUUUCCGGUCUAAUGAGUCCAUGAGGACGAAACAG [G22A G31A], the self-cleavage amounted to 0.337. As for ACCGGAUGUGCUUUCCGGUCUAAUGAGUCCCUGAGGACGAAACAG [G22A G31C], the figure is 0.396; as for ACCGGAUGUGCUUUCCGGUCUAAUGAGUCCGUGAGGACGAACCAG [G22A A42C], 0.335; as for ACCGGAUGUGCUUUCCGGUCUAAUGAGUCCGUGAGGACGAAGCAG [G22A A42G], 0.351. For ACCGGAUGUGCUUUCCGGUCUAAUGAGUCCGUGAGGACGAAUCAG [G22A A42U], the self-cleavage was determined as 0.321. Next, ACCGGAUGUGCUUUCCGGUCUAAUGAGUCCGUGAGGACGAAAGAG [G22A C43G]: 0.288; ACCGGAUGUGCUUUCCGGUCUAAUGAGUCCGUGAGGACGAAAAAG [G22A C43A]: 0.411.

For ACCGGAUGUGCUUUCCGGUCUAAUGAGUCCGUGAGGACGAAAUAG [G22A C43U], the self-cleavage turned out to be 0.318. With ACCGGAUGUGCUUUCCGGUCUAAUGAGUCCGUGAGGACGGAACAG [G22A A40G], the self-cleavage worked out at 0.297.

As to ACCGGAUGUGCUUUCCGGUCUAAUGAGUCCGUGAGGACGCAACAG [G22A A40C], the self-cleavage is 0.371.

Turning to ACCGGAUGUGCUUUCCGGUCUAAUGAGUCCGUGAGGACGUAACAG [G22A A40U], the self-cleavage is 0.366. Next, ACCGGAUGUGCUUUCCGGUCUAAUGAGUCCGUGAGGACGAAACAA [G22A G45A]: 0.369. Regarding ACCGGAUGUGCUUUCCGGUCUAAUGAGUCCGUGAGGACGAAACAC [G22A G45C], the self-cleavage was found to be 0.436.

Regarding ACCGGAUGUGCUUUCCGGUCUAAUGAGUCCGUGAGGACGAAACAU [G22A G45U], the self-cleavage was determined as 0.383. As for ACCGGAUGUGCUUUCCGGUCUAAUGAGUCAGUGAGGACGAAACAG [G22A C30A], the figure is 0.392.

For the variant ACCGGAUGUGCUUUCCGGUCUAAUGAGUCGGUGAGGACGAAACAG [G22A C30G], the self-cleavage came out at 0.343. ACCGGAUGUGCUUUCCGGUCUAAUGAGUCUGUGAGGACGAAACAG [G22A C30U]: the self-cleavage came to 0.417.
